Laboratory results published in the RNAGym collection of RNA variant scans (doi:10.1073/pnas.2313332121).

B1: TPR t1 (parent)
chain: GACCAAUCUGCCCUCAGAGCUCGAGAACAUCUUCGGAUGCAGAGGAGGCAGGCUUCGGUGGCGCGAUAGCGCCAACGUCCUCAACCUCCAAUGCAUCCCACCACAUGAUGAUGCCUGAAGAGCCUUGGUUUUUUG

Variants of: B1
Assay: polymerase ribozyme fitness, log enrichment relative to wild type (log ratio); higher = more active; in vitro selection for triplet polymerase activity
Method in brief: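 Mutant libraries were PCR-built and transcribed for each subunit of a heterodimeric triplet polymerase ribozyme and selected for one round in triplicate at −7 °C, frozen, before gel excision of extended constructs and streptavidin-bead capture. Input and output libraries were Illumina-sequenced, keeping genotypes with ≥10 input reads and ≥1 read per output. Fitness is a logarithmic ratio of genotype to wild-type enrichment, in base 2, using inverse-variance-weighted replicate averages.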

Row | Variant | polymerase ribozyme fitness (log ratio)
1 | C13G G117C | -4.58
2 | A84U G110C | -4.16
3 | A18U C62U C64U A74C A90U A121C U129A | -6.59
4 | C73G C89A C104U A119U | -3.03
5 | G61A A121C | 1.95
6 | A16U G93A U133A | -2.82
7 | C3A C20G G60A C79U C98G C99A C123G | -2.5
8 | C15A C28G G61A G120A | -2.11
9 | C79A G107U A119G G135C | -5.92
10 | G69U A118C | -2.03
11 | C11U A121C | 1.76
12 | U9G A83C C85U A121C U130C | 1.97
13 | G113U C124U | -2.48
14 | U7A U92A | -2.1
15 | G45U | -1.31
16 | A18U U92A | -4.67
17 | G57C A121C | 1.63
18 | C53A G60A U78C | 0.136
19 | C56A G110A | -0.447
20 | A37U C101G G128C | -3.4
21 | C13G C53A C82A | -2.24

Row | Variant | polymerase ribozyme fitness (log ratio)
22 | G122A U130C | -0.597
23 | G39C A41U | -2.47
24 | A6U C13G G69U C88U C97U G117C C124G U132A | -1.66
25 | A41U G127C | -2.91
26 | C11A U87G C101G | -2.62
27 | C73A G127C | -1.98
28 | G69C A111C | -0.894
29 | A37C C64U U87A G117U | -3.55
30 | G10U U32C C56A C64A | -6.8
31 | C49G G69C U125G | -3.42
32 | U21G C72U A75U | -1.05
33 | U59G C76U G110U | -2.81
34 | G113C U116G C124A | -5.98
35 | C3U G57C C62U C97U A108G C123U C124G | -1.18
36 | U116A U133C | -3.8
37 | G39C C89A C99U U106A A111G | -6
38 | U33A C62U | -5.03
39 | U38G G47U C76U C85U U96C U130C | -5.5
40 | C13G C62U G113A | -2.67
41 | G44A C56U A84C G120C | -0.295
42 | C53A G60U U106A U109G G113U | -5.78

Row | Variant | polymerase ribozyme fitness (log ratio)
43 | U9C C12G C13G A50C C70U C76A U78A C85U | -2.55
44 | U21G C88A C97A A121C | -5.55
45 | C20U C85U A100U | -3.48
46 | G61A A66C U78C C88G | -2.23
47 | C70U A91U | -3.34
48 | G48A A50C U78A A119G G120C | 0.118
49 | C88G U129A | -3.06
50 | U78C U112C | 2.04
51 | C8U U109A | -5.29
52 | C53U U87A | -0.467
53 | G10A A29U G110A | -2.97
54 | C13G G113U | -2.94
55 | A26C G35A G61U C98G C124U | -6.78
56 | C12A C20U C114U | -0.454
57 | A2G C13A A43U G51U C64U A83U A84G | -6.26
58 | C11U C56G | -1.1
59 | G39A C86A C123A | -1.81
60 | C11U C104U | -1.3
61 | A6C C97G | -5.16
62 | A26U C53A G61C U78A G110A | -5.96
63 | U30A G52U G60A | -4.07

Row | Variant | polymerase ribozyme fitness (log ratio)
64 | U38A G39U C82G U130A | -3.44
65 | C62U A74U G128C | -3
66 | C11G C82A | -0.254
67 | C70G C79U | -3.08
68 | C72A U78G U133A | 0.102
69 | C3U C15A U81A U92G C115U U125G | -5.92
70 | A43U C88U A95C | -2.51
71 | G47C G110C | -6.05
72 | A75G G128A | -1.5
73 | A27U C53G | -2.71
74 | C3U G69U | 0.198
75 | C12A U54C C115U | -2.47
76 | C12A G36U G63A | -2.46
77 | C12G A18U G45U G63U C88A | -5.09
78 | C79G G110C | -6.49
79 | G120A U132A | 1.97
80 | C13G C40U C49A | -2.42
81 | A37C A91C | -0.946
82 | C40U G61A U78C | -0.104
83 | A6C G47U | -1.55
84 | G51U G61U C80A G127U | -1.14
